Laboratory results taken from patent publication US20230235012A1 (ALPINE IMMUNE SCIENCES, published 2023).
Changes are numbered by the printed parent chain. In names and notes the source's numbering stands.

T1: human ICOS, full-length, expressed on transfected Expi293 cells (human, UniProt Q9Y6W8 21-199)
T1 construct: whole, on cells
T1 sequence (looked up): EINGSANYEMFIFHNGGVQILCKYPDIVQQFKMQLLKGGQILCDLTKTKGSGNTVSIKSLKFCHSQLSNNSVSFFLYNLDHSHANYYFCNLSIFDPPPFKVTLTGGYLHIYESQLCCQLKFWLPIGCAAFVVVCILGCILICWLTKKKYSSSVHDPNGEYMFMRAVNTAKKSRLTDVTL

B1: variant ICOSL IgV-Fc fusion N52K/N57Y/Q100R (Fc fusion)
chain: DTQEKEVRAMVGSDVELSCACPEGSRFDLNDVYVYWQTSESKTVVTYHIPQKSSLEYVDSRYRNRALMSPAGMLRGDFSLRLFNVTPQDEQKFHCLVLSRSLGFQEVLSVEVTLHVAANFSVGSGGGGSEPKSSDKTHTCPPCPAPEAEGAPSVFLFPPKPKDTLMISRTPEVTCVVVDVSHEDPEVKFNWYVDGVEVHNAKTKPREEQYNSTYRVVSVLTVLHQDWLNGKEYKCKVSNKALPAPIEKTISKAKGQPREPQVYTLPPSREEMTKNQVSLTCLVKGFYPSDIAVEWESNGQPENNYKTTPPVLDSDGSFFLYSKLTVDKSRWQQGNVFSCSVMHEALHNHYTQKSLSLSPG
B2: variant ICOSL IgV-Fc fusion N52L/N57H/Q100R (Fc fusion)
chain: B1 chain with K52L, Y57H
B3: variant ICOSL IgV-Fc fusion N52L/N57V (Fc fusion)
chain: B1 chain with K52L, Y57V, R100Q
B4: variant ICOSL IgV-Fc fusion N52M/N57H/Q100S (Fc fusion)
chain: B1 chain with K52M, Y57H, R100S
B5: variant ICOSL IgV-Fc fusion N52M/N57W/Q100P (Fc fusion)
chain: B1 chain with K52M, Y57W, R100P
B6: variant ICOSL IgV-Fc fusion N52P/N57S/Q100G (Fc fusion)
chain: B1 chain with K52P, Y57S, R100G
B7: variant ICOSL IgV-Fc fusion N52Q/N57F (Fc fusion)
chain: B1 chain with K52Q, Y57F, R100Q
B8: variant ICOSL IgV-Fc fusion N52Q/N57S/Q100A (Fc fusion)
chain: B1 chain with K52Q, Y57S, R100A
B9: variant ICOSL IgV-Fc fusion N52R/N57F/Q100T (Fc fusion)
chain: B1 chain with K52R, Y57F, R100T
B10: variant ICOSL IgV-Fc fusion N52R/N57L/Q100A (Fc fusion)
chain: B1 chain with K52R, Y57L, R100A
B11: variant ICOSL IgV-Fc fusion N52R/N57L/Q100S (Fc fusion)
chain: B1 chain with K52R, Y57L, R100S
B12: variant ICOSL IgV-Fc fusion N52R/N57W/Q100K (Fc fusion)
chain: B1 chain with K52R, Y57W, R100K
B13: variant ICOSL IgV-Fc fusion N52R/N57Y/Q100R (Fc fusion)
chain: B1 chain with K52R
B14: variant ICOSL IgV-Fc fusion N52R/N57Y/Q100S (Fc fusion)
chain: B1 chain with K52R, R100S
B15: variant ICOSL IgV-Fc fusion N52S/N57H/Q100E (Fc fusion)
chain: B1 chain with K52S, Y57H, R100E
B16: variant ICOSL IgV-Fc fusion N52S/N57L/Q100S (Fc fusion)
chain: B1 chain with K52S, Y57L, R100S
B17: variant ICOSL IgV-Fc fusion N52S/N57M/Q100S (Fc fusion)
chain: B1 chain with K52S, Y57M, R100S
B18: variant ICOSL IgV-Fc fusion N52S/N57Y/Q100M (Fc fusion)
chain: B1 chain with K52S, R100M
B19: variant ICOSL IgV-Fc fusion N52S/N57Y/Q100S (Fc fusion)
chain: B1 chain with K52S, R100S
B20: variant ICOSL IgV-Fc fusion N52S/N57Y/Q100V (Fc fusion)
chain: B1 chain with K52S, R100V
B21: variant ICOSL IgV-Fc fusion N52T/N57H/Q100A (Fc fusion)
chain: B1 chain with K52T, Y57H, R100A
B22: variant ICOSL IgV-Fc fusion N52T/N57H/Q100S (Fc fusion)
chain: B1 chain with K52T, Y57H, R100S
B23: variant ICOSL IgV-Fc fusion N52V/N57T/Q100L (Fc fusion)
chain: B1 chain with K52V, Y57T, R100L
B24: variant ICOSL IgV-Fc fusion N57Q/Q100P (Fc fusion)
chain: B1 chain with K52N, Y57Q, R100P
B25: variant ICOSL ECD-Fc fusion, full length N52H/N57Y/Q100R/F172S (Fc fusion, not shown: a dimerising Fc or GST)
chain: DTQEKEVRAMVGSDVELSCACPEGSRFDLNDVYVYWQTSESKTVVTYHIPQHSSLEYVDSRYRNRALMSPAGMLRGDFSLRLFNVTPQDEQKFHCLVLSRSLGFQEVLSVEVTLHVAANFSVPVVSAPHSPSQDELTFTCTSINGYPRPNVYWINKTDNSLLDQALQNDTVSLNMRGLYDVVSVLRIARTPSVNIGCCIENVLLQQNLTVGSQTGNDIGERDKITENPVSTGEKNAAT
B26: variant ICOSL IgV-Fc fusion N52H/N57Y/Q100R (Fc fusion, not shown: a dimerising Fc or GST)
chain: DTQEKEVRAMVGSDVELSCACPEGSRFDLNDVYVYWQTSESKTVVTYHIPQHSSLEYVDSRYRNRALMSPAGMLRGDFSLRLFNVTPQDEQKFHCLVLSRSLGFQEVLSVEVTLHVAANFSV

Target: T1, human ICOS, full-length, expressed on …
Assay: flow cytometry, 100 nM, Expi293 cells with human ICOS

Row | Binder | MFI | MFI ratio to WT (ΔWT)
1 | B1 | 199000 MFI | 0.94 fold
2 | B2 | 250000 MFI | 1.18 fold
3 | B3 | 257000 MFI | 1.21 fold
4 | B4 | 266000 MFI | 1.25 fold
5 | B5 | 322000 MFI | 1.52 fold
6 | B6 | 143000 MFI | 0.68 fold
7 | B7 | 192000 MFI | 0.91 fold
8 | B8 | 263000 MFI | 1.24 fold
9 | B9 | 270000 MFI | 1.27 fold
10 | B10 | 308000 MFI | 1.45 fold
11 | B11 | 231000 MFI | 1.09 fold
12 | B12 | 349000 MFI | 1.65 fold
13 | B13 | 6100 MFI | 0.03 fold
14 | B14 | 229000 MFI | 1.08 fold
15 | B15 | 258000 MFI | 1.22 fold
16 | B16 | 269000 MFI | 1.27 fold
17 | B17 | 312000 MFI | 1.47 fold
18 | B18 | 303000 MFI | 1.43 fold
19 | B19 | 224000 MFI | 1.06 fold
20 | B20 | 219000 MFI | 1.03 fold
21 | B21 | 220000 MFI | 1.04 fold
22 | B22 | 259000 MFI | 1.22 fold
23 | B23 | 29200 MFI | 0.14 fold
24 | B24 | 205000 MFI | 0.97 fold
25 | B25 | 238000 MFI | 1.12 fold
26 | B26 | 200000 MFI | 0.94 fold

Target: T2, human CD28, full-length, expressed on transfected Expi293 cells (human, UniProt P10747 19-220)
T2 construct: whole, on cells
Assay: flow cytometry, 100 nM, Expi293 cells with human CD28

Row | Binder | MFI | MFI ratio to WT (ΔWT)
27 | B1 | 141000 MFI | 6.3 fold
28 | B2 | 141000 MFI | 6.3 fold
29 | B3 | 54800 MFI | 2.5 fold
30 | B4 | 115000 MFI | 5.1 fold
31 | B5 | 168000 MFI | 7.5 fold
32 | B6 | 6800 MFI | 0.3 fold
33 | B7 | 131000 MFI | 5.9 fold
34 | B8 | 91300 MFI | 4.1 fold
35 | B9 | 127000 MFI | 5.7 fold
36 | B10 | 119000 MFI | 5.3 fold
37 | B11 | 112000 MFI | 5 fold
38 | B12 | 131000 MFI | 5.9 fold
39 | B13 | 3280 MFI | 0.1 fold
40 | B14 | 133000 MFI | 6 fold
41 | B15 | 117000 MFI | 5.2 fold
42 | B16 | 108000 MFI | 4.8 fold
43 | B17 | 134000 MFI | 6 fold
44 | B18 | 157000 MFI | 7 fold
45 | B19 | 161000 MFI | 7.2 fold
46 | B20 | 126000 MFI | 5.7 fold
47 | B21 | 113000 MFI | 5 fold
48 | B22 | 143000 MFI | 6.4 fold
49 | B23 | 6200 MFI | 0.3 fold
50 | B24 | 15200 MFI | 0.7 fold
51 | B25 | 138000 MFI | 6.2 fold
52 | B26 | 142000 MFI | 6.4 fold

Target: T3, human CTLA-4, full-length, expressed on transfected Expi293 cells (human, UniProt P16410 36-223)
T3 construct: whole, on cells
Assay: flow cytometry, 100 nM, Expi293 cells with human CTLA-4

T3 sequence (P16410 36-223): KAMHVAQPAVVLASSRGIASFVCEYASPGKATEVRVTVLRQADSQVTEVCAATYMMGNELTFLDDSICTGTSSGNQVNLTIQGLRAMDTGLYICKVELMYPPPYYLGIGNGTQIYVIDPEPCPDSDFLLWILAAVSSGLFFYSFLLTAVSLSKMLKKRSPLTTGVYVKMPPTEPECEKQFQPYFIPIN

Row | Binder | MFI | MFI ratio to WT (ΔWT)
53 | B1 | 233000 MFI | 0.71 fold
54 | B2 | 353000 MFI | 1.07 fold
55 | B3 | 151000 MFI | 0.46 fold
56 | B4 | 463000 MFI | 1.4 fold
57 | B5 | 343000 MFI | 1.04 fold
58 | B6 | 5050 MFI | 0.02 fold
59 | B7 | 367000 MFI | 1.11 fold
60 | B8 | 315000 MFI | 0.95 fold
61 | B9 | 358000 MFI | 1.08 fold
62 | B10 | 403000 MFI | 1.22 fold
63 | B11 | 289000 MFI | 0.88 fold
64 | B12 | 477000 MFI | 1.44 fold
65 | B13 | 4270 MFI | 0.01 fold
66 | B14 | 504000 MFI | 1.53 fold
67 | B15 | 302000 MFI | 0.92 fold
68 | B16 | 197000 MFI | 0.6 fold
69 | B17 | 228000 MFI | 0.69 fold
70 | B18 | 395000 MFI | 1.2 fold
71 | B19 | 205000 MFI | 0.62 fold
72 | B20 | 305000 MFI | 0.92 fold
73 | B21 | 350000 MFI | 1.06 fold
74 | B22 | 378000 MFI | 1.14 fold
75 | B23 | 11500 MFI | 0.03 fold
76 | B24 | 69100 MFI | 0.21 fold
77 | B25 | 606000 MFI | 1.83 fold
78 | B26 | 817000 MFI | 2.47 fold
